Data from article PMC9050003, “N- and C-terminal regions of the small heat shock protein IbpA from Acholeplasma laidlawii competitively govern its oligomerization pattern and chaperone-like activity†” (RSC Advances, 2020).
Changes are numbered by the printed parent chain. Names and notes keep the numbering of the source.

Legend:
[1] = target: AlIbpAN11N12 (Acholeplasma laidlawii) (UniProt A9NFB2); test: SPR; BIAcore T200; His6-AlIbpA proteins immobilised on Ni2+-loaded NTA chip (FC2, about 2000 RU); His6-TnrA20 on FC1 as control, response difference FC2 − FC1; ADH 1.0 mg ml^−1 injected at 10 μl min^−1; 10 mM Na2HPO4, 150 mM NaCl, pH 7.4; KD calculated from the binding curve slopes
[2] = target: AlIbpASEPΔN12 (Acholeplasma laidlawii) (UniProt A9NFB2); test: as above
[3] = target: AlIbpASEPΔN25 (Acholeplasma laidlawii) (UniProt A9NFB2); test: as above
[4] = target: AlIbpAΔC14 (Acholeplasma laidlawii); test: as above
[5] = target: AlIbpAΔN12 (Acholeplasma laidlawii) (UniProt A9NFB2); test: as above
[6] = target: AlIbpAΔN25 (Acholeplasma laidlawii) (UniProt A9NFB2); test: as above
[7] = target: full-length recombinant AlIbpA (small heat shock protein IbpA from Acholeplasma laidlawii), His6-tagged (Acholeplasma laidlawii) (UniProt A9NFB2); test: as above
[8] = target: AlIbpAΔC14 (Acholeplasma laidlawii); test: SEC; Superdex 200 10/300, 0.5 ml min^−1, 1 mg ml^−1 protein, 100 μl injected; 50 mM NaCl, 50 mM KCl, 50 mM K2HPO4 pH 7.4; 30 °C; fractions as areas under the peaks; peaks also viewed by TEM
[9] = target: AlIbpAΔN25C14 (Acholeplasma laidlawii); test: as above
[10] = target: AlIbpAΔN12C14 (Acholeplasma laidlawii); test: as above
[11] = target: the molecule itself; test: as above
[12] = target: the molecule itself; test: as above; remark: listed apart in the source

Q: How did the Kd [1] turn out when alcohol dehydrogenase (enzyme) was run?
A: 500 nM

Q: And the Kd [2]?
A: 7.2 µM

Q: And the Kd [3]?
A: 3.2 µM

Q: What about the Kd [4] of the same molecule?
A: 700 nM

Q: What about the Kd [5] of the same molecule?
A: 3.5 µM

Q: And the Kd [6]?
A: 2200 nM

Q: What about the Kd [7] of the same molecule?
A: 1600 nM

Q: What does the source list for AlIbpAΔC14 (domain or fragment)?
A: fraction of the protein in I peak of the elution profile [8]: 7%; fraction of the protein in II peak of the elution profile [8]: 86%

Q: What does the source list for AlIbpAΔN25C14 (domain or fragment)?
A: fraction of the protein in I peak of the elution profile [9]: 1%; fraction of the protein in II peak of the elution profile [9]: 50%

Q: For AlIbpAΔN12C14 (domain or fragment), which fraction of the protein in I peak of the elution profile [10] is on record?
A: 1%

Q: And the fraction of the protein in II peak of the elution profile [10]?
A: 86%

B1: full-length recombinant AlIbpA (small heat shock protein IbpA from Acholeplasma laidlawii), His6-tagged (natural protein, UniProt A9NFB2 1-137, looked up)
chain: MLSLLNKNRSFFDDFFEDFNVLNPVTTSNLMRTDIKETQNGYSLSVELPGFKKEDVKVSLEDGYLTIEAHTSKNSETKDQATKYIRKERYEGTMKRSYYVGNLHLDEINGTFENGMLHIELPKETKKEPEKRYLELK
notes: small heat shock protein IbpA (AlIbpA) of Acholeplasma laidlawii PG8, full length; Legends call it AlIbpA-His6, the methods say the His6 tag is N-terminal; In solution a mixture of about 24-mer globules, fibrils and agglomerates; also called AlIbpA-His6; His6-IbpA; source: E. coli BL21(DE3), purified (Ni-NTA); also in E. coli BL21 pET-IbpA cells, cross-linked in the cells, crude cell extract; not …
Q: For B1, which “stoichiometry N” value [11] is on record?
A: ~24

Q: And the “fraction of the protein in I peak of the elution profile” value [12]?
A: 23 ± 10.3%

Q: What about the “fraction of the protein in II peak of the elution profile” value [12] of the same molecule?
A: 74 ± 17.8%

B2: AlIbpASEP (natural protein, Acholeplasma laidlawii, UniProt A9NFB2 1-137, looked up)
chain: B1 chain with L134S, L136P
notes: AlIbpA of Acholeplasma laidlawii PG8 with the C-terminal LEL motif substituted by SEP (L134 to S134, L136 to P136), length of the C-terminus kept; source: E. coli BL21(DE3), purified (Ni-NTA); not shown: His6, N-terminal, kept
Q: Which results are given for B2?
A: fraction of the protein in I peak of the elution profile [12]: 18 ± 4.4%; fraction of the protein in II peak of the elution profile [12]: 56 ± 7.8%

B3: AlIbpAN11N12 (natural protein, Acholeplasma laidlawii, UniProt A9NFB2 1-137, looked up)
chain: B1 chain with F11N, F12N
notes: AlIbpA of Acholeplasma laidlawii PG8 with F11F12 substituted by N11N12, complete N-terminus length kept; source: E. coli BL21(DE3), purified (Ni-NTA); not shown: His6, N-terminal, kept
Q: What does the source list for B3?
A: stoichiometry N [11]: ~24; fraction of the protein in I peak of the elution profile [12]: 8 ± 1.7%; fraction of the protein in II peak of the elution profile [12]: 88 ± 12.2%

B4: AlIbpAΔN25 (domain or fragment, Acholeplasma laidlawii, UniProt A9NFB2 26-137, looked up)
chain: TTSNLMRTDIKETQNGYSLSVELPGFKKEDVKVSLEDGYLTIEAHTSKNSETKDQATKYIRKERYEGTMKRSYYVGNLHLDEINGTFENGMLHIELPKETKKEPEKRYLELK
notes: AlIbpA of Acholeplasma laidlawii PG8 with 25 N-terminal amino acids removed (lacks both (W/F)(D/F)PF-like motifs); source: E. coli BL21(DE3), purified (Ni-NTA); not shown: His6, N-terminal, kept
Q: Which results are given for B4?
A: fraction of the protein in I peak of the elution profile [12]: 77 ± 21.3%; fraction of the protein in II peak of the elution profile [12]: 12 ± 2.4%

B5: AlIbpASEPΔN25 (domain or fragment, Acholeplasma laidlawii, UniProt A9NFB2 26-137, looked up)
chain: B4 chain with L109S, L111P
notes: AlIbpA of Acholeplasma laidlawii PG8 lacking 25 N-terminal amino acids and with LEL substituted by SEP (L134S, L136P); source: E. coli BL21(DE3), purified (Ni-NTA); not shown: His6, N-terminal, kept
Q: For B5, which “fraction of the protein in I peak of the elution profile” value [12] is on record?
A: 69 ± 15.5%

Q: And the “fraction of the protein in II peak of the elution profile” value [12]?
A: 23 ± 3.2%

B6: AlIbpAΔN12 (domain or fragment, Acholeplasma laidlawii, UniProt A9NFB2 13-137, looked up)
chain: DDFFEDFNVLNPVTTSNLMRTDIKETQNGYSLSVELPGFKKEDVKVSLEDGYLTIEAHTSKNSETKDQATKYIRKERYEGTMKRSYYVGNLHLDEINGTFENGMLHIELPKETKKEPEKRYLELK
notes: AlIbpA of Acholeplasma laidlawii PG8 lacking the first 12 amino acid residues; source: E. coli BL21(DE3), purified (Ni-NTA); not shown: His6, N-terminal, kept
Q: B6 was tested. Which “fraction of the protein in I peak of the elution profile” value [12] did it give?
A: 88 ± 17.1%

Q: What about the “fraction of the protein in II peak of the elution profile” value [12] of the same molecule?
A: 10 ± 1.1%

B7: AlIbpASEPΔN12 (domain or fragment, Acholeplasma laidlawii, UniProt A9NFB2 13-137, looked up)
chain: B6 chain with L122S, L124P
notes: AlIbpA of Acholeplasma laidlawii PG8 lacking 12 N-terminal amino acids and with LEL substituted by SEP (L134S, L136P); source: E. coli BL21(DE3), purified (Ni-NTA); not shown: His6, N-terminal, kept
Q: B7 was tested. Which “fraction of the protein in I peak of the elution profile” value [12] did it give?
A: 2 ± 0.8%

Q: And the “fraction of the protein in II peak of the elution profile” value [12]?
A: 59 ± 10.1%
